Biological target: the molecule itself
Test: zymogram (SDS-PAGE gel with embedded fish sperm DNA, renatured); self-association, dimer band
Method: In addition, the nuclease activity was confirmed by zymography. […] Then, the gel was washed three times for 5 min in mQ and incubated for 48 h in zymogram renaturation buffer (150 mM NaH₂PO₄ pH 7, 10 mM MgCl₂ and 0.1% Triton X-100), which allowed the proteins to refold to their native state. Finally, the gel was stained for 20 min in 0.5 μg/ml ethidium bromide and destained for 20 min in the zymogram renaturation buffer. After staining with ethidium bromide, the enzymes with nuclease activity were visible as non-fluorescent bands using an UV transilluminator. The impact of boiling on the renaturing capacity of Gp5 was tested by loading both preboiled (10 min, 95° C.) and non-preboiled samples. Clear bands were observed around 8-9 kDa, indicating the nuclease activity of Gp5 (MW=8.5 KDa) (for details see FIG. 4). […] Despite the small fraction of Gp5 that is present as a dimer on the zymogram, this dimer:monomer ratio is not necessarily present in vivo. After all, SDS is an anionic surfactant, negatively charging proteins to allow a separation based on the molecular weight in SDS-PAGE. This step generally involves also the disintegration of dimers into monomers. The removal of SDS in the renaturation step, might allow Gp5 to reassociate into dimers.
Clear bands were observed around 8-9 kDa in all samples, indicating the presence of Gp5. […] The protein concentrations are shown on the top.

B1: LUZ19_Gp5 (untagged, purified) (enzyme)
chain: MSSRDPYRIGHRVGLVNYSDRYLGADAAGTKGTIEAITRPSRCMTIYHVRCERTLRLIEAEARNVRFIRQRAER
notes: A few linker residues may remain at the N-terminus; also called Phage LUZ19 gp5; miniDNase
binding result: binds

— patent US20200199554A1 (KATHOLIEKE UNIVERSITEIT LEUVEN, published 2020)
